Assay [1] deals with T1, human activated Protein C (human, UniProt P04070 43-461).
T1 construct: also called human aPC; hAPC
The assay is described as follows: Biacore, Fab.

The target in assay [2] is T1, human activated Protein C. The assay is described as follows: direct ELISA, antigen coated, Fab. (In an ELISA, binding on a coated surface is turned into a signal by an enzyme label.)
Another assay addresses T2, dog Protein C (zymogen) (dog, UniProt Q28278 43-456).
T2 construct: mature; also called dog PC
T2 sequence (looked up): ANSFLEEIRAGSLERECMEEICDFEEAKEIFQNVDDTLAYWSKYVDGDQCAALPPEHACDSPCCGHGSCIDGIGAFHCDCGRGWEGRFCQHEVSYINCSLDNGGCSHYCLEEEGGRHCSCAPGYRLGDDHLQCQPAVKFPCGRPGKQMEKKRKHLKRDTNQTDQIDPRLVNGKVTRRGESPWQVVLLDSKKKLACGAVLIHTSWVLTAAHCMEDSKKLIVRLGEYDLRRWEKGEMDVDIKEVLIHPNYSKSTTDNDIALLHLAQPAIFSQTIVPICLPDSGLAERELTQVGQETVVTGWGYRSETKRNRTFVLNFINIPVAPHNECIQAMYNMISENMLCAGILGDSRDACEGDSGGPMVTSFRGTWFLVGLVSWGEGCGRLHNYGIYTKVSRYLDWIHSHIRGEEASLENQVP
The assay is described as follows: direct ELISA, dPC coated at 10 ug/ml, Fab at 20 nM, anti-human Fab-HRP, AmplexRed (RFU). The method, then: (§1) To determine the binding selectivity of these fabs, their binding activities to the proenzyme human PC, to thrombin (FIIa), and to the activated Factor II (FIIa, thrombin), Factor VII (FVIIa), Factor IX (FIXa), and Factor X (FXa) were also assessed by ELISA. Briefly, an ELISA plate was coated with human aPC at 1 ug/ml, mouse PC at 10 ug/ml, dog PC at 10 ug/ml, other coagulation factors (FIIa, FVIIa, FIXa, FXa) at 5-10 ug/ml. Anti-aPC Fabs were added to the wells at 20 nM (1 ug/ml). Bound Fabs were detected by the secondary antibody (anti-human Fab-HRP) followed by HRP substrate AmplexRed.

Assay [3] has as its target T3, mouse Protein C (zymogen) (mouse, UniProt P33587 42-460).
T3 construct: mature; also called mouse PC
T3 sequence (looked up): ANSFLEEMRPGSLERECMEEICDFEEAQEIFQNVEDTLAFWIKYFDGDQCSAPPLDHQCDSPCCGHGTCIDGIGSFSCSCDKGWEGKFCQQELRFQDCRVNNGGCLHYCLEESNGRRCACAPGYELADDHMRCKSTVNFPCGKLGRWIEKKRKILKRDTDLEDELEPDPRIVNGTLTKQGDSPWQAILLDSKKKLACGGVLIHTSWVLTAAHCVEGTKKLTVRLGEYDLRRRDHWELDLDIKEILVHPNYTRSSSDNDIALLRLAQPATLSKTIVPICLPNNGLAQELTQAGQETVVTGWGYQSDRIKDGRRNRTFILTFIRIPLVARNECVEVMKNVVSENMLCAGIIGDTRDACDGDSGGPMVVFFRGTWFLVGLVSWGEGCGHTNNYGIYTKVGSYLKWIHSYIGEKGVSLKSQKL
As to the kind of experiment: direct ELISA, mPC coated at 10 ug/ml, Fab at 20 nM, anti-human Fab-HRP, AmplexRed (RFU). The method, then: as §1

The target of assay [4] is T4, dog activated Protein C (dog, UniProt Q28278 43-456).
T4 construct: mature; also called dog aPC; dAPC
T4 sequence (looked up): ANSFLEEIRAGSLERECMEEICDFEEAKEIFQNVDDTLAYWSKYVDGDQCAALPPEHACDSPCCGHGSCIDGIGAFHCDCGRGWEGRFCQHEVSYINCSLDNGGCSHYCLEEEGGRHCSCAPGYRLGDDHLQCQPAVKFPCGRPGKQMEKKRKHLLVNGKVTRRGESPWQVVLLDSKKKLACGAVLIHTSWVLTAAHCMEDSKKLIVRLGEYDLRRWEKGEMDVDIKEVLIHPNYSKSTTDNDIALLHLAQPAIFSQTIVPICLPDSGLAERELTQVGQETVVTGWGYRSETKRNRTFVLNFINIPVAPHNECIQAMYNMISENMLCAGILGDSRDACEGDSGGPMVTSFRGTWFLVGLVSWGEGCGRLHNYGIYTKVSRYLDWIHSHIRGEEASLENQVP
The assay is described as follows: direct ELISA, antigen coated at 100 ng/well, Fab at 20 nM (1 ug/ml), anti-human Fab-HRP, AmplexRed (RFU). The method, then: (§2) FIG. 3 depicts a graph characterizing anti-APC Fabs by direct ELISA. An ELISA plate was coated with human PC (hPC), human aPC (hAPC), dog aPC (dAPC), mouse aPC (mAPC) at 100 ng per well. Purified Fabs designate on the X-axis were added to the plate at 20 nM (1 ug/ml). Bound Fab was detected by the secondary antibody (anti-human Fab-HRP) followed by HRP substrate AmplexRed. The purified Fabs preferentially bind to human aPC and, with the exception of Fab R41C17, show little to no binding to human PC.
(§3) Antigens were coated directly on ELISA plates. Coating antigens included human PC (plasma-derived), human aPC (recombinant), dog aPC (plasma-derived), and mouse aPC (recombinant) at 100 ng/well in PBS/Ca buffer. After blocking the plate with 5% milk/PBS and washing the plate with PBS-Tween20, soluble Fabs (1 ug/ml, 20 nM) were added to the plate and incubated for 1 h at RT with shaking. Fab binding was detected with anti-human Fab (lambda) antibody-HRP and Amplex red as substrate. […] In contrast, R41C17 binds to both human APC and human PC. Also shown in FIG. 3 is cross-species reactivity of Fabs by ELISA.

The target in assay [5] is T1, human activated Protein C. As to the kind of experiment: direct ELISA, aPC coated, hIgG1.
The target in assay [6] is T4, dog activated Protein C. As to the kind of experiment: direct ELISA, antigen coated at 1 ug/ml, IgG at 20 nM, anti-human IgG-HRP, AmplexRed (RFU).
For assay [7], the target named is T5, human Protein C (zymogen) (human, UniProt P04070 43-461).
T5 construct: also called human PC; hPC
As to the kind of experiment: direct ELISA, antigen coated at 100 ng/well, Fab at 20 nM (1 ug/ml), anti-human Fab-HRP, AmplexRed (RFU). The method, then: as §2, §3

For assay [8], the target named is T5, human Protein C (zymogen). The assay is described as follows: direct ELISA, antigen coated at 1 ug/ml, IgG at 20 nM, anti-human IgG-HRP, AmplexRed (RFU).

B1: R41C17 Fab (Fab, V domains shown)
VH: EVQLLESGGGLVQPGGSLRLSCAASGFTFSNYAMSWVRQSPGKGLEWVAVISYDGREKYYSDSVKGRFTISRDNSKNTLYLQMNSLRAEDTAVYYCARDRGRTFDYWGQGTLVTVTS
VL: LTQPPSASGTPGQRVTISCTGSSSNIGAGYVVHWYQQLPGTAPKLLIYRNNHRPSGVPDRFSGSKSGTSASLAISGLRSEDEADYYCAAWDDSLNGRVFGGGTKLTVLG
notes: Human Fab (lambda), expressed in E. coli; also called R4117
Regarding B1, the Kd – broadly, the free concentration of one partner at which half of the binding sites on the other are occupied at equilibrium, for simple one-to-one binding – in assay [1] came to 4.8 nM. For the same molecule, the EC50 – broadly, the concentration needed to bring the measured effect to its halfway point – in [2] was found to be 8.6 nM. In addition, the binding result (with dog Protein C (zymogen); in assay [3]; in the assay with dog activated Protein C [4]) was “no binding (tested: 20 nM)” in each case.

B2: R41C17 hIgG1 (antibody, V domains shown)
VH: B1 VH
VL: B1 VL
Molecule B2 yielded a concentration for a half-maximal effect (EC50) in assay [5] of 0.55 nM. Moreover, in the assay with dog activated Protein C [6], the binding result is reported as “no binding (tested: 20 nM)”.

B3: T46P19 Fab (Fab, V domains shown)
VH: EVQLLESGGGLVQPGGSLRLSCAASGFTFSGYGMHWVRQAPGKGLEWVSGINWNGGSTGYADSVKGRFTISRDNSKNTLYLQMNSLRAEDTAVYYCARNRATRSGYYYFDSWGQGTLVTVTS
VL: LTQPPSASGTPGQRVTISCTGSSSNIGAGYDVHWYQQLPGTAPKLLIYGNINRPSGVPDRFSGSKSGTSASLAISGLRSEDEADYYCSSYTRSATLVFGGGTKLTVLG
notes: Human Fab (lambda), expressed in E. coli
B3 came in with a Kd in assay [1] of 7.2 nM. The molecule further yielded a half-maximal effective concentration (EC50) in assay [2] of 10.3 nM. For the same molecule, the binding result (with dog Protein C (zymogen); in assay [3]; in [7]; in the assay with dog activated Protein C [4]) was “no binding (tested: 20 nM)” throughout.

B4: T46P19 hIgG1 (antibody, V domains shown)
VH: B3 VH
VL: B3 VL
B4 came in with an EC50 in [5] of 0.37 nM. Besides, the binding result (in assay [8]; in the assay with dog activated Protein C [6]) was “no binding (tested: 20 nM)” each time.

B5: O3E7 hIgG1 (antibody, V domains shown)
VH: EVQLLESGGGLVQPGGSLRLSCAASGFTFSSYSMNWVRQAPGKGLEWVSAISGSGGSTYYADSVKGRFTISRDNSKNTLYLQMNSLRAEDTAVYYCARDRRVRGIYDAFDMWGQGTLVTVTS
VL: QSVLTQPPSTSGTPGQRVTISCTGSSSNIGAGFDVHWYQQLPGTAPKLLIYGNSNRPSGVPDRFSGSKSGTSASLAISGLRSEDEADYYCATWQDTLTGWMFGGGTKLTVLG
notes: also called O3E7-IgG; 03E7
B5 gave a 50% effective concentration (EC50) in [5] of 16.9 nM. This lies in the double-digit nanomolar range.

B6: C22J13 Fab (Fab, V domains shown)
VH: EVQLLESGGGLVQPGGSLRLSCAASGFTFSSNYMSWVRQAPGKGLEWVAVISYDGSNKYYADSVKGRFTISRDNSKNTLYLQMNSLRAEDTAMYYCALTGRSGWMRFPNWFDPWGQGTLVTVTS
VL: QSVLTQPPSASGTPGQRVTISCSGSDSNIGSNAVNWYQQLPGTAPKLLIYDNNKRPSGVPDRFSGSKSGTSASLAISGLRSEDEADYYCSSYTSSNTVVFGGGTKLTVLG
notes: Human Fab (lambda) from a phage library, expressed in E. coli
B6 yielded a Kd in assay [1] of 16 nM. The molecule also registered an EC50 in [2] of 10.6 nM. For the same molecule, the binding result in assay [3] and in assay [7] was “no binding (tested: 20 nM)” in each case.

B7: C26B9 Fab (Fab, V domains shown)
VH: EVQLLESGGGLVQPGGSLRLSCAASGFTFSSYGMHWVRQAPGKGLEWVSVIYSGGSTYYADSVKGRFTISRDNSKNTLYLQMNSLRAEDTAVYYCARMGRAFDIWGQGTLVTVTS
VL: QSVLTQPPSASGTPGQRVTISCSGSSSNIRSNTVNWYQQLPGTAPKLLIYGNSNRPSGVPDRFSGSKSGTSASLAISGLRSEDEADYYCQSYDSSLSGDVVFGGGTKLTVLG
notes: as for B6
Regarding B7, the dissociation constant (Kd) in [1] stood at 7.9 nM. Besides, the half-maximal effective concentration (EC50) in [2] was determined as 10.3 nM. For the same molecule, the binding result (with dog Protein C (zymogen); in assay [3]; in assay [7]; with dog activated Protein C [4]) was “no binding (tested: 20 nM)” in each case.

B8: C26B9 hIgG1 (antibody, V domains shown)
VH: B7 VH
VL: B7 VL
In [5], B8 returned an EC50 of 0.65 nM. For the same molecule, the binding result (in [8]; with dog activated Protein C [6]) was “no binding (tested: 20 nM)” throughout.

The values are drawn from patent US20150307625A1 (Bayer, published 2015).
